# Experimental data from patent US20210388087A1 (Chugai, published 2021).
# B1: H183/L072 VL N30K (antibody, name in Kabat numbering, V domains shown)
# VH: QVQLVESGGGLVQPGRSLRLSCAASGFTFSNAWMHWVRQAPGKGLEWVAQIKDKGNAYAAYYAPSVKGRFTISRDDSKNSIYLQMNSLKTEDTAVYYCHYVHYASASTVLPAFGVDAWGQGTTVTVSS
# VL: DIVMTQSPLSLPVTPGEPASISCQASQELVHMNRKTYLHWYQQKPGQAPRLLIYKVSNRFPGVPDRFSGSGSGTDFTLKISRVEAEDVGVYYCAQGTSVPFTFGQGTKLEIK
# B2: H183/L072 VL N30L (antibody, name in Kabat numbering, V domains shown)
# VH: QVQLVESGGGLVQPGRSLRLSCAASGFTFSNAWMHWVRQAPGKGLEWVAQIKDKGNAYAAYYAPSVKGRFTISRDDSKNSIYLQMNSLKTEDTAVYYCHYVHYASASTVLPAFGVDAWGQGTTVTVSS
# VL: DIVMTQSPLSLPVTPGEPASISCQASQELVHMNRLTYLHWYQQKPGQAPRLLIYKVSNRFPGVPDRFSGSGSGTDFTLKISRVEAEDVGVYYCAQGTSVPFTFGQGTKLEIK
# B3: H183/L072 VL N30M (antibody, name in Kabat numbering, V domains shown)
# VH: QVQLVESGGGLVQPGRSLRLSCAASGFTFSNAWMHWVRQAPGKGLEWVAQIKDKGNAYAAYYAPSVKGRFTISRDDSKNSIYLQMNSLKTEDTAVYYCHYVHYASASTVLPAFGVDAWGQGTTVTVSS
# VL: DIVMTQSPLSLPVTPGEPASISCQASQELVHMNRMTYLHWYQQKPGQAPRLLIYKVSNRFPGVPDRFSGSGSGTDFTLKISRVEAEDVGVYYCAQGTSVPFTFGQGTKLEIK
# B4: H183/L072 VL N30Q (antibody, name in Kabat numbering, V domains shown)
# VH: QVQLVESGGGLVQPGRSLRLSCAASGFTFSNAWMHWVRQAPGKGLEWVAQIKDKGNAYAAYYAPSVKGRFTISRDDSKNSIYLQMNSLKTEDTAVYYCHYVHYASASTVLPAFGVDAWGQGTTVTVSS
# VL: DIVMTQSPLSLPVTPGEPASISCQASQELVHMNRQTYLHWYQQKPGQAPRLLIYKVSNRFPGVPDRFSGSGSGTDFTLKISRVEAEDVGVYYCAQGTSVPFTFGQGTKLEIK
# B5: H183/L072 VL N30R (antibody, name in Kabat numbering, V domains shown)
# VH: QVQLVESGGGLVQPGRSLRLSCAASGFTFSNAWMHWVRQAPGKGLEWVAQIKDKGNAYAAYYAPSVKGRFTISRDDSKNSIYLQMNSLKTEDTAVYYCHYVHYASASTVLPAFGVDAWGQGTTVTVSS
# VL: DIVMTQSPLSLPVTPGEPASISCQASQELVHMNRRTYLHWYQQKPGQAPRLLIYKVSNRFPGVPDRFSGSGSGTDFTLKISRVEAEDVGVYYCAQGTSVPFTFGQGTKLEIK
# B6: H183/L072 VL N30S (antibody, name in Kabat numbering, V domains shown)
# VH: QVQLVESGGGLVQPGRSLRLSCAASGFTFSNAWMHWVRQAPGKGLEWVAQIKDKGNAYAAYYAPSVKGRFTISRDDSKNSIYLQMNSLKTEDTAVYYCHYVHYASASTVLPAFGVDAWGQGTTVTVSS
# VL: DIVMTQSPLSLPVTPGEPASISCQASQELVHMNRSTYLHWYQQKPGQAPRLLIYKVSNRFPGVPDRFSGSGSGTDFTLKISRVEAEDVGVYYCAQGTSVPFTFGQGTKLEIK
# B7: H183/L072 VL N30T (antibody, name in Kabat numbering, V domains shown)
# VH: QVQLVESGGGLVQPGRSLRLSCAASGFTFSNAWMHWVRQAPGKGLEWVAQIKDKGNAYAAYYAPSVKGRFTISRDDSKNSIYLQMNSLKTEDTAVYYCHYVHYASASTVLPAFGVDAWGQGTTVTVSS
# VL: DIVMTQSPLSLPVTPGEPASISCQASQELVHMNRTTYLHWYQQKPGQAPRLLIYKVSNRFPGVPDRFSGSGSGTDFTLKISRVEAEDVGVYYCAQGTSVPFTFGQGTKLEIK
# B8: H183/L072 VL N30V (antibody, name in Kabat numbering, V domains shown)
# VH: QVQLVESGGGLVQPGRSLRLSCAASGFTFSNAWMHWVRQAPGKGLEWVAQIKDKGNAYAAYYAPSVKGRFTISRDDSKNSIYLQMNSLKTEDTAVYYCHYVHYASASTVLPAFGVDAWGQGTTVTVSS
# VL: DIVMTQSPLSLPVTPGEPASISCQASQELVHMNRVTYLHWYQQKPGQAPRLLIYKVSNRFPGVPDRFSGSGSGTDFTLKISRVEAEDVGVYYCAQGTSVPFTFGQGTKLEIK
# B9: H183/L072 VL N30W (antibody, name in Kabat numbering, V domains shown)
# VH: QVQLVESGGGLVQPGRSLRLSCAASGFTFSNAWMHWVRQAPGKGLEWVAQIKDKGNAYAAYYAPSVKGRFTISRDDSKNSIYLQMNSLKTEDTAVYYCHYVHYASASTVLPAFGVDAWGQGTTVTVSS
# VL: DIVMTQSPLSLPVTPGEPASISCQASQELVHMNRWTYLHWYQQKPGQAPRLLIYKVSNRFPGVPDRFSGSGSGTDFTLKISRVEAEDVGVYYCAQGTSVPFTFGQGTKLEIK
# B10: H183/L072 VL N30Y (antibody, name in Kabat numbering, V domains shown)
# VH: QVQLVESGGGLVQPGRSLRLSCAASGFTFSNAWMHWVRQAPGKGLEWVAQIKDKGNAYAAYYAPSVKGRFTISRDDSKNSIYLQMNSLKTEDTAVYYCHYVHYASASTVLPAFGVDAWGQGTTVTVSS
# VL: DIVMTQSPLSLPVTPGEPASISCQASQELVHMNRYTYLHWYQQKPGQAPRLLIYKVSNRFPGVPDRFSGSGSGTDFTLKISRVEAEDVGVYYCAQGTSVPFTFGQGTKLEIK
# B11: H183/L072 VL N53A (antibody, name in Kabat numbering, V domains shown)
# VH: QVQLVESGGGLVQPGRSLRLSCAASGFTFSNAWMHWVRQAPGKGLEWVAQIKDKGNAYAAYYAPSVKGRFTISRDDSKNSIYLQMNSLKTEDTAVYYCHYVHYASASTVLPAFGVDAWGQGTTVTVSS
# VL: DIVMTQSPLSLPVTPGEPASISCQASQELVHMNRNTYLHWYQQKPGQAPRLLIYKVSARFPGVPDRFSGSGSGTDFTLKISRVEAEDVGVYYCAQGTSVPFTFGQGTKLEIK
# B12: H183/L072 VL N53D (antibody, name in Kabat numbering, V domains shown)
# VH: QVQLVESGGGLVQPGRSLRLSCAASGFTFSNAWMHWVRQAPGKGLEWVAQIKDKGNAYAAYYAPSVKGRFTISRDDSKNSIYLQMNSLKTEDTAVYYCHYVHYASASTVLPAFGVDAWGQGTTVTVSS
# VL: DIVMTQSPLSLPVTPGEPASISCQASQELVHMNRNTYLHWYQQKPGQAPRLLIYKVSDRFPGVPDRFSGSGSGTDFTLKISRVEAEDVGVYYCAQGTSVPFTFGQGTKLEIK
# B13: H183/L072 VL N53E (antibody, name in Kabat numbering, V domains shown)
# VH: QVQLVESGGGLVQPGRSLRLSCAASGFTFSNAWMHWVRQAPGKGLEWVAQIKDKGNAYAAYYAPSVKGRFTISRDDSKNSIYLQMNSLKTEDTAVYYCHYVHYASASTVLPAFGVDAWGQGTTVTVSS
# VL: DIVMTQSPLSLPVTPGEPASISCQASQELVHMNRNTYLHWYQQKPGQAPRLLIYKVSERFPGVPDRFSGSGSGTDFTLKISRVEAEDVGVYYCAQGTSVPFTFGQGTKLEIK
# B14: H183/L072 VL N53F (antibody, name in Kabat numbering, V domains shown)
# VH: QVQLVESGGGLVQPGRSLRLSCAASGFTFSNAWMHWVRQAPGKGLEWVAQIKDKGNAYAAYYAPSVKGRFTISRDDSKNSIYLQMNSLKTEDTAVYYCHYVHYASASTVLPAFGVDAWGQGTTVTVSS
# VL: DIVMTQSPLSLPVTPGEPASISCQASQELVHMNRNTYLHWYQQKPGQAPRLLIYKVSFRFPGVPDRFSGSGSGTDFTLKISRVEAEDVGVYYCAQGTSVPFTFGQGTKLEIK
# B15: H183/L072 VL N53G (antibody, name in Kabat numbering, V domains shown)
# VH: QVQLVESGGGLVQPGRSLRLSCAASGFTFSNAWMHWVRQAPGKGLEWVAQIKDKGNAYAAYYAPSVKGRFTISRDDSKNSIYLQMNSLKTEDTAVYYCHYVHYASASTVLPAFGVDAWGQGTTVTVSS
# VL: DIVMTQSPLSLPVTPGEPASISCQASQELVHMNRNTYLHWYQQKPGQAPRLLIYKVSGRFPGVPDRFSGSGSGTDFTLKISRVEAEDVGVYYCAQGTSVPFTFGQGTKLEIK
# B16: H183/L072 VL N53H (antibody, name in Kabat numbering, V domains shown)
# VH: QVQLVESGGGLVQPGRSLRLSCAASGFTFSNAWMHWVRQAPGKGLEWVAQIKDKGNAYAAYYAPSVKGRFTISRDDSKNSIYLQMNSLKTEDTAVYYCHYVHYASASTVLPAFGVDAWGQGTTVTVSS
# VL: DIVMTQSPLSLPVTPGEPASISCQASQELVHMNRNTYLHWYQQKPGQAPRLLIYKVSHRFPGVPDRFSGSGSGTDFTLKISRVEAEDVGVYYCAQGTSVPFTFGQGTKLEIK
# B17: H183/L072 VL N53K (antibody, name in Kabat numbering, V domains shown)
# VH: QVQLVESGGGLVQPGRSLRLSCAASGFTFSNAWMHWVRQAPGKGLEWVAQIKDKGNAYAAYYAPSVKGRFTISRDDSKNSIYLQMNSLKTEDTAVYYCHYVHYASASTVLPAFGVDAWGQGTTVTVSS
# VL: DIVMTQSPLSLPVTPGEPASISCQASQELVHMNRNTYLHWYQQKPGQAPRLLIYKVSKRFPGVPDRFSGSGSGTDFTLKISRVEAEDVGVYYCAQGTSVPFTFGQGTKLEIK
# B18: H183/L072 VL N53L (antibody, name in Kabat numbering, V domains shown)
# VH: QVQLVESGGGLVQPGRSLRLSCAASGFTFSNAWMHWVRQAPGKGLEWVAQIKDKGNAYAAYYAPSVKGRFTISRDDSKNSIYLQMNSLKTEDTAVYYCHYVHYASASTVLPAFGVDAWGQGTTVTVSS
# VL: DIVMTQSPLSLPVTPGEPASISCQASQELVHMNRNTYLHWYQQKPGQAPRLLIYKVSLRFPGVPDRFSGSGSGTDFTLKISRVEAEDVGVYYCAQGTSVPFTFGQGTKLEIK
# B19: H183/L072 VL N53M (antibody, name in Kabat numbering, V domains shown)
# VH: QVQLVESGGGLVQPGRSLRLSCAASGFTFSNAWMHWVRQAPGKGLEWVAQIKDKGNAYAAYYAPSVKGRFTISRDDSKNSIYLQMNSLKTEDTAVYYCHYVHYASASTVLPAFGVDAWGQGTTVTVSS
# VL: DIVMTQSPLSLPVTPGEPASISCQASQELVHMNRNTYLHWYQQKPGQAPRLLIYKVSMRFPGVPDRFSGSGSGTDFTLKISRVEAEDVGVYYCAQGTSVPFTFGQGTKLEIK
# B20: H183/L072 VL N53P (antibody, name in Kabat numbering, V domains shown)
# VH: QVQLVESGGGLVQPGRSLRLSCAASGFTFSNAWMHWVRQAPGKGLEWVAQIKDKGNAYAAYYAPSVKGRFTISRDDSKNSIYLQMNSLKTEDTAVYYCHYVHYASASTVLPAFGVDAWGQGTTVTVSS
# VL: DIVMTQSPLSLPVTPGEPASISCQASQELVHMNRNTYLHWYQQKPGQAPRLLIYKVSPRFPGVPDRFSGSGSGTDFTLKISRVEAEDVGVYYCAQGTSVPFTFGQGTKLEIK
# Target: T1, Human CD3eg linker (human)
# T1 construct: Single-chain construct; also called recombinant human CD3
# T1 chain: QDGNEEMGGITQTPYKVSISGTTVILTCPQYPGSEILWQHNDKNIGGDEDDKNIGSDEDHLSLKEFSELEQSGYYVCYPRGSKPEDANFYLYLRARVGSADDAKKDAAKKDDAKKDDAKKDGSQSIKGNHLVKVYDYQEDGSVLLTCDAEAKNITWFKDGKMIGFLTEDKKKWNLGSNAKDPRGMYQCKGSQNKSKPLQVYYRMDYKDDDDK
# Test: SPR; fold vs parent H183/L072
row,fold change of affinity [fold],Binder
1,1.3,B1
2,0.5,B2
3,1.6,B3
4,1.2,B4
5,1.5,B5
6,0,B6
7,0.1,B7
8,0.5,B8
9,0.9,B9
10,0.8,B10
11,0.6,B11
12,0.2,B12
13,0.5,B13
14,0.7,B14
15,0.6,B15
16,1.2,B16
17,1.4,B17
18,0.6,B18
19,0.9,B19
20,0.6,B20
